Legend:
[1] = system: Ser30 of Beclin 1; experiment: Beclin 1 Ser30 phosphorylation after compound treatment (immunoprecipitation of endogenous Beclin 1, phospho-Ser30 antibody); type: cell-based; details: HEK293T cells treated for 0, 15, 30, 60 and 120 min; endogenous Beclin 1 isolated by immunoprecipitation; rabbit phospho-Ser30 antibody
Protocol: For co-immunoprecipitation, cell extracts were prepared in a buffer containing 40 mM HEPES, pH 7.4, 120 mM NaCl, 1 mM EDTA, 50 mM NaF, 1.5 mM Na3VO4, 10 mM Mb-glycerophosphate, 1% triton X-100, and protease inhibitor (Roche). Immunoprecipitated proteins were washed four times with a lysis buffer, and loaded onto 8% Tris-glycine gels. The resultant proteins were transferred onto polyvinylidene difluoride (PVDF) membranes (Bio-Rad, USA), and detected with western blotting detection reagents (Perkin Elmer, USA).
HEK293T cells were treated with rapamycin for predetermined periods of time (0, 15, 30, 60, and 120 min). Endogenous Beclin 1 was isolated by immunoprecipitation. The phosphorylation of Ser30 was analyzed using rabbit antibodies developed in the present invention. It was verified that Ser30 of Beclin 1 was phosphorylated by rapamycin (FIG. 5). Rapamycin increases the activity of ULK1.
HEK293T cells were treated with torin for predetermined periods of time (0, 15, 30, 60, and 120 min). Endogenous Beclin 1 was isolated by immunoprecipitation. The phosphorylation of Ser30 was analyzed using rabbit antibodies developed in the present invention. It was verified that Ser30 of Beclin 1 was phosphorylated by torin (FIG. 6).

[2] = biological target: myc-tagged Beclin 1, Q14457
myc-tagged Beclin 1, Q14457, sequence (Q14457 whole entry, looked up): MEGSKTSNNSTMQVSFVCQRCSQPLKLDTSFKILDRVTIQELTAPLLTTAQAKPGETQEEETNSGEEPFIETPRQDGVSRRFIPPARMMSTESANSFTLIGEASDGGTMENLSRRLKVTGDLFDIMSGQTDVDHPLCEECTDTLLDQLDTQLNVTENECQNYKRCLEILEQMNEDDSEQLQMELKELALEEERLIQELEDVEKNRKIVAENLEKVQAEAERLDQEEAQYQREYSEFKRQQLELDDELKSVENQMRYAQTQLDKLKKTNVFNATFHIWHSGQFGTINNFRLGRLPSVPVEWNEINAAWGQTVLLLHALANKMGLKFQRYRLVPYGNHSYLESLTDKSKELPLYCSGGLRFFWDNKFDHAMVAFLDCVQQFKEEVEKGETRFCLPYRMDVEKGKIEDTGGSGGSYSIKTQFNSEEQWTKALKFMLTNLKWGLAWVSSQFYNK

[3] = biological target: Recombinant Beclin 1 isolated from E. coli, Q14457
Recombinant Beclin 1 isolated from E. coli, Q14457, sequence (Q14457 whole entry, looked up): as above

| Molecule | band shift on SDS-PAGE (western blot) [2] | incorporation of 32P into Beclin 1 (in vitro kinase reaction, autoradiogram) [3] | also measured |
| --- | --- | --- | --- |
| torin |  |  | phosphorylation of Ser30 of Beclin 1 [1]: phosphorylated |
| HA-tagged ULK1 wild type (protein) MEPGRGGTETVGKFEFSRKDLIGHGAFAVVFKGRHREKHDLEVAVKCINKKNLAKSQTLLGKEIKILKELKHENIVALYDFQEMANSVYLVMEYCNGGDLADYLHAMRTLSEDTIRLFLQQIAGAMRLLHSKGIIHRDLKPQNILLSNPAGRRANPNSIRVKIADFGFARYLQSNMMAATLCGSPMYMAPEVIMSQHYDGKADLWSIGTIVYQCLTGKAPFQASSPQDLRLFYEKNKTLVPTIPRETSAPLRQLLLALLQRNHKDRMDFDEFFHHPFLDASPSVRKSPPVPVPSYPSSGSGSSSSSSSTSHLASPPSLGEMQQLQKTLASPADTAGFLHSSRDSGGSKDSSCDTDDFVMVPAQFPGDLVAEAPSAKPPPDSLMCSGSSLVASAGLESHGRTPSPSPPCSSSPSPSGRAGPFSSSRCGASVPIPVPTQVQNYQRIERNLQSPTQFQTPRSSAIRRSGSTSPLGFARASPSPPAHAEHGGVLARKMSLGGGRPYTPSPQVGTIPERPGWSGTPSPQGAEMRGGRSPRPGSSAPEHSPRTSGLGCRLHSAPNLSDLHVVRPKLPKPPTDPLGAVFSPPQASPPQPSHGLQSCRNLRGSPKLPDFLQRNPLPPILGSPTKAVPSFDFPKTPSSQNLLALLARQGVVMTPPRNRTLPDLSEVGPFHGQPLGPGLRPGEDPKGPFGRSFSTSRLTDLLLKAAFGTQAPDPGSTESLQEKPMEIAPSAGFGGSLHPGARAGGTSSPSPVVFTVGSPPSGSTPPQGPRTRMFSAGPTGSASSSARHLVPGPCSEAPAPELPAPGHGCSFADPITANLEGAVTFEAPDLPEETLMEQEHTEILRGLRFTLLFVQHVLEIAALKGSASEAAGGPEYQLQESVVADQISLLSREWGFAEQLVLYLKVAELLSSGLQSAIDQIRAGKLCLSSTVKQVVRRLNELYKASVVSCQGLSLRLQRFFLDKQRLLDRIHSITAERLIFSHAVQMVQSAALDEMFQHREGCVPRYHKALLLLEGLQHMLSDQADIENVTKCKLCIERRLSALLTGICA | Beclin 1 co-expressed together with ULK1 showed band shift |  |  |
| myc-tagged ULK1 wild type (protein) MEPGRGGTETVGKFEFSRKDLIGHGAFAVVFKGRHREKHDLEVAVKCINKKNLAKSQTLLGKEIKILKELKHENIVALYDFQEMANSVYLVMEYCNGGDLADYLHAMRTLSEDTIRLFLQQIAGAMRLLHSKGIIHRDLKPQNILLSNPAGRRANPNSIRVKIADFGFARYLQSNMMAATLCGSPMYMAPEVIMSQHYDGKADLWSIGTIVYQCLTGKAPFQASSPQDLRLFYEKNKTLVPTIPRETSAPLRQLLLALLQRNHKDRMDFDEFFHHPFLDASPSVRKSPPVPVPSYPSSGSGSSSSSSSTSHLASPPSLGEMQQLQKTLASPADTAGFLHSSRDSGGSKDSSCDTDDFVMVPAQFPGDLVAEAPSAKPPPDSLMCSGSSLVASAGLESHGRTPSPSPPCSSSPSPSGRAGPFSSSRCGASVPIPVPTQVQNYQRIERNLQSPTQFQTPRSSAIRRSGSTSPLGFARASPSPPAHAEHGGVLARKMSLGGGRPYTPSPQVGTIPERPGWSGTPSPQGAEMRGGRSPRPGSSAPEHSPRTSGLGCRLHSAPNLSDLHVVRPKLPKPPTDPLGAVFSPPQASPPQPSHGLQSCRNLRGSPKLPDFLQRNPLPPILGSPTKAVPSFDFPKTPSSQNLLALLARQGVVMTPPRNRTLPDLSEVGPFHGQPLGPGLRPGEDPKGPFGRSFSTSRLTDLLLKAAFGTQAPDPGSTESLQEKPMEIAPSAGFGGSLHPGARAGGTSSPSPVVFTVGSPPSGSTPPQGPRTRMFSAGPTGSASSSARHLVPGPCSEAPAPELPAPGHGCSFADPITANLEGAVTFEAPDLPEETLMEQEHTEILRGLRFTLLFVQHVLEIAALKGSASEAAGGPEYQLQESVVADQISLLSREWGFAEQLVLYLKVAELLSSGLQSAIDQIRAGKLCLSSTVKQVVRRLNELYKASVVSCQGLSLRLQRFFLDKQRLLDRIHSITAERLIFSHAVQMVQSAALDEMFQHREGCVPRYHKALLLLEGLQHMLSDQADIENVTKCKLCIERRLSALLTGICA |  | The ULK1 wild type phosphorylates Beclin 1 |  |
| HA-tagged ULK1 M92A KD (kinase dead) mutant (protein) MEPGRGGTETVGKFEFSRKDLIGHGAFAVVFKGRHREKHDLEVAVKCINKKNLAKSQTLLGKEIKILKELKHENIVALYDFQEMANSVYLVAEYCNGGDLADYLHAMRTLSEDTIRLFLQQIAGAMRLLHSKGIIHRDLKPQNILLSNPAGRRANPNSIRVKIADFGFARYLQSNMMAATLCGSPMYMAPEVIMSQHYDGKADLWSIGTIVYQCLTGKAPFQASSPQDLRLFYEKNKTLVPTIPRETSAPLRQLLLALLQRNHKDRMDFDEFFHHPFLDASPSVRKSPPVPVPSYPSSGSGSSSSSSSTSHLASPPSLGEMQQLQKTLASPADTAGFLHSSRDSGGSKDSSCDTDDFVMVPAQFPGDLVAEAPSAKPPPDSLMCSGSSLVASAGLESHGRTPSPSPPCSSSPSPSGRAGPFSSSRCGASVPIPVPTQVQNYQRIERNLQSPTQFQTPRSSAIRRSGSTSPLGFARASPSPPAHAEHGGVLARKMSLGGGRPYTPSPQVGTIPERPGWSGTPSPQGAEMRGGRSPRPGSSAPEHSPRTSGLGCRLHSAPNLSDLHVVRPKLPKPPTDPLGAVFSPPQASPPQPSHGLQSCRNLRGSPKLPDFLQRNPLPPILGSPTKAVPSFDFPKTPSSQNLLALLARQGVVMTPPRNRTLPDLSEVGPFHGQPLGPGLRPGEDPKGPFGRSFSTSRLTDLLLKAAFGTQAPDPGSTESLQEKPMEIAPSAGFGGSLHPGARAGGTSSPSPVVFTVGSPPSGSTPPQGPRTRMFSAGPTGSASSSARHLVPGPCSEAPAPELPAPGHGCSFADPITANLEGAVTFEAPDLPEETLMEQEHTEILRGLRFTLLFVQHVLEIAALKGSASEAAGGPEYQLQESVVADQISLLSREWGFAEQLVLYLKVAELLSSGLQSAIDQIRAGKLCLSSTVKQVVRRLNELYKASVVSCQGLSLRLQRFFLDKQRLLDRIHSITAERLIFSHAVQMVQSAALDEMFQHREGCVPRYHKALLLLEGLQHMLSDQADIENVTKCKLCIERRLSALLTGICA | Beclin 1 co-expressed together with ULK1 M92A KD showed no band shift |  |  |
| myc-tagged ULK1 KD (M92) mutant (protein) MEPGRGGTETVGKFEFSRKDLIGHGAFAVVFKGRHREKHDLEVAVKCINKKNLAKSQTLLGKEIKILKELKHENIVALYDFQEMANSVYLVAEYCNGGDLADYLHAMRTLSEDTIRLFLQQIAGAMRLLHSKGIIHRDLKPQNILLSNPAGRRANPNSIRVKIADFGFARYLQSNMMAATLCGSPMYMAPEVIMSQHYDGKADLWSIGTIVYQCLTGKAPFQASSPQDLRLFYEKNKTLVPTIPRETSAPLRQLLLALLQRNHKDRMDFDEFFHHPFLDASPSVRKSPPVPVPSYPSSGSGSSSSSSSTSHLASPPSLGEMQQLQKTLASPADTAGFLHSSRDSGGSKDSSCDTDDFVMVPAQFPGDLVAEAPSAKPPPDSLMCSGSSLVASAGLESHGRTPSPSPPCSSSPSPSGRAGPFSSSRCGASVPIPVPTQVQNYQRIERNLQSPTQFQTPRSSAIRRSGSTSPLGFARASPSPPAHAEHGGVLARKMSLGGGRPYTPSPQVGTIPERPGWSGTPSPQGAEMRGGRSPRPGSSAPEHSPRTSGLGCRLHSAPNLSDLHVVRPKLPKPPTDPLGAVFSPPQASPPQPSHGLQSCRNLRGSPKLPDFLQRNPLPPILGSPTKAVPSFDFPKTPSSQNLLALLARQGVVMTPPRNRTLPDLSEVGPFHGQPLGPGLRPGEDPKGPFGRSFSTSRLTDLLLKAAFGTQAPDPGSTESLQEKPMEIAPSAGFGGSLHPGARAGGTSSPSPVVFTVGSPPSGSTPPQGPRTRMFSAGPTGSASSSARHLVPGPCSEAPAPELPAPGHGCSFADPITANLEGAVTFEAPDLPEETLMEQEHTEILRGLRFTLLFVQHVLEIAALKGSASEAAGGPEYQLQESVVADQISLLSREWGFAEQLVLYLKVAELLSSGLQSAIDQIRAGKLCLSSTVKQVVRRLNELYKASVVSCQGLSLRLQRFFLDKQRLLDRIHSITAERLIFSHAVQMVQSAALDEMFQHREGCVPRYHKALLLLEGLQHMLSDQADIENVTKCKLCIERRLSALLTGICA |  | KD mutant-added Beclin 1 was not phosphorylated |  |
